Target: chymotrypsin (Bos taurus, UniProt P00766)
Test: Dynamic light scattering heteroassociation experiment (rh vs molar ratio of the two proteins, fitted)
Format: binding
Method: The method begins with sample preparation to be described presently. The DLS data are collected, and then analyzed in a four-step procedure. First, the concentrations of all components in a solution at a given time are calculated from postulated stoichiometries, association constant(s), Ka, and the known a priori concentrations of the stock solutions of the constituent molecule(s). […] Third, the modeled concentration data and modeled hydrodynamic radius data are combined to model the expected dynamic light scattering data at each sample ratio. Fourth, a best fit of the models to the collected DLS data is obtained. Thus, some or all parameters are adjusted to produce a best fit to the DLS data. Such fitting might be achieved using a least squares method, for example. These four steps of data analysis are discussed in detail in the following, and variations are possible, as would be apparent to one skilled in the art of DLS or particle associations.
In this example, to prepare the sample series for both self- and hetero-association, two stock solutions are mixed manually. For analysis of hetero-association, a high concentration, on the order of 0.5 mg/mL, solution of each pure molecule is prepared in the same solvent. For larger molecules, such as those greater than, say, 50 kDa, lower concentrations may be used. For analysis of self-association reactions, the molecular solution is prepared at the highest concentration to be tested; the second solution is the pure solvent in which the sample molecule was prepared. All solutions are filtered through a 0.02 μm filter.
For either type of analysis, aliquots of the two solution mixtures are dispensed into a 1536 well microtiter plate in a series of ratios from 100% A:0% B to 0% A:100% B, or some subset thereof, where the number of ratios prepared depends upon the desired detail of analysis. Typically, 10-20 ratios are used.
Following the dispensing of the sample, the microtiter plate is centrifuged at a rate and duration sufficient to remove any bubbles present in the samples; typically 1000 g for 15 seconds. Wells may then be covered to avoid evaporation, for example, by dispensing approximately 10 μL of paraffin oil into each well. The plate is then re-centrifuged prior to being placed into a dynamic light scattering instrument programmed, for example, to make 25 one-second dynamic light scattering measurements per well.
As an example of the inventive method, we consider two species A and B associating to form species AB with equilibrium association constant KAB: A+B ? AB. In this example we will use fitting procedure C, using the average hydrodynamic radius found by fitting the autocorrelation function measured for each sample to a cumulants model. We will assume that Equation (11) is valid. […]

| binding to chymotrypsin (in words) (negative control, FIG. 5) | association constant (negative control, pH 6.7) | a value (association conformation parameter) (DLS fit, rAB={rA^a+rB^a}^1/a) | association constant (DLS fit, soybean trypsin inhibitor fitted with an incompetent fraction of chymotrypsin) [M⁻¹] | Molecule |
| --- | --- | --- | --- | --- |
| no binding | 0 |  |  | lysozyme: protein, 14.4 kDa, negative control |
|  |  | 2.26 | 3.8e+06 | soybean trypsin inhibitor: protein, molar mass of 22 kDa, binds chymotrypsin (protein, UniProt P01070 25-205, looked up) Trypsin inhibitor A: DFVLDNEGNPLENGGTYYILSDITAFGGIRAAPTGNERCPLTVVQSRNELDKGIGTIISSPYRIRFIAEGHPLSLKFDSFAVIMLCVGIPTEWSVVEDLPEGPAVKIGENKDAMDGWFRLERVSDDEFNNYKLVFCPQQAEDDKCGDIGISIDHDDGTRRLVVSKNKPLVVQFQKLDKESL |

Source: patent US9459207B2, “Method of characterizing interactions and screening for effectors” (Wyatt Technology Corporation, priority 2010, dated 2016)
